This is an account of results in patent US20210079056A1.

Experiment [1] concerns the target rat ANP receptor (NPR-A) (rat) (UniProt P18910). The experiment is described as follows: cell-based or functional assay.
The target of experiment [2] is rat CNP receptor (NPR-B) (rat) (UniProt P16067). Put plainly: cell-based or functional assay.
rat CNP receptor (NPR-B) (rat), sequence (P16067 17-1047): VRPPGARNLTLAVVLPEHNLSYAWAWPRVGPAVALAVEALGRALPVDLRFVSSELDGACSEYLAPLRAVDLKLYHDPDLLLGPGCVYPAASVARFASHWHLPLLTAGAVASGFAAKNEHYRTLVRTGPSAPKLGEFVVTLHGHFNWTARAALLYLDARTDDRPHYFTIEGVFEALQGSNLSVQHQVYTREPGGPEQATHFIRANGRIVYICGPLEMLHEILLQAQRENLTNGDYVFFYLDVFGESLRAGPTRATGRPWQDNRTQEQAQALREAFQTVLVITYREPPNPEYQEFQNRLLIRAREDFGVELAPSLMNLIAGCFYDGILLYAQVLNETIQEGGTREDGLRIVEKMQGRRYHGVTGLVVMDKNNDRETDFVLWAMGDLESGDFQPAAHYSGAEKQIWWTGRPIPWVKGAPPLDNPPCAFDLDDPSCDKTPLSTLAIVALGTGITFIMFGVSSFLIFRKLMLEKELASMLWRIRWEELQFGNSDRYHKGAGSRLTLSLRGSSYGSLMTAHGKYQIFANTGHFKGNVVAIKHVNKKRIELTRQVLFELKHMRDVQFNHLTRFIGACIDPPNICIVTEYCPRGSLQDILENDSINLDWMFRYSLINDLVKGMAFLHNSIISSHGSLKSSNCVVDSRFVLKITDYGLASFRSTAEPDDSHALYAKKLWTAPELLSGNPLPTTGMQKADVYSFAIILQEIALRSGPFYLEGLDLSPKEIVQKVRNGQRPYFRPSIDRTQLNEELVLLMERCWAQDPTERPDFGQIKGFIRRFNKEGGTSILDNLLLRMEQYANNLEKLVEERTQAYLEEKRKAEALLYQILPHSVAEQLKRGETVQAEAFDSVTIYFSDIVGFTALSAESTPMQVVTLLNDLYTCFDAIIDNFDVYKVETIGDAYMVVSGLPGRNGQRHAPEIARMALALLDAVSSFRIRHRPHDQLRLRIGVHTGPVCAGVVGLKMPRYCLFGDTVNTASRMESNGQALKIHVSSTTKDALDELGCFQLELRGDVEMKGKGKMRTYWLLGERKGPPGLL

rat ANP receptor (NPR-A) (rat), sequence (P18910 29-1057): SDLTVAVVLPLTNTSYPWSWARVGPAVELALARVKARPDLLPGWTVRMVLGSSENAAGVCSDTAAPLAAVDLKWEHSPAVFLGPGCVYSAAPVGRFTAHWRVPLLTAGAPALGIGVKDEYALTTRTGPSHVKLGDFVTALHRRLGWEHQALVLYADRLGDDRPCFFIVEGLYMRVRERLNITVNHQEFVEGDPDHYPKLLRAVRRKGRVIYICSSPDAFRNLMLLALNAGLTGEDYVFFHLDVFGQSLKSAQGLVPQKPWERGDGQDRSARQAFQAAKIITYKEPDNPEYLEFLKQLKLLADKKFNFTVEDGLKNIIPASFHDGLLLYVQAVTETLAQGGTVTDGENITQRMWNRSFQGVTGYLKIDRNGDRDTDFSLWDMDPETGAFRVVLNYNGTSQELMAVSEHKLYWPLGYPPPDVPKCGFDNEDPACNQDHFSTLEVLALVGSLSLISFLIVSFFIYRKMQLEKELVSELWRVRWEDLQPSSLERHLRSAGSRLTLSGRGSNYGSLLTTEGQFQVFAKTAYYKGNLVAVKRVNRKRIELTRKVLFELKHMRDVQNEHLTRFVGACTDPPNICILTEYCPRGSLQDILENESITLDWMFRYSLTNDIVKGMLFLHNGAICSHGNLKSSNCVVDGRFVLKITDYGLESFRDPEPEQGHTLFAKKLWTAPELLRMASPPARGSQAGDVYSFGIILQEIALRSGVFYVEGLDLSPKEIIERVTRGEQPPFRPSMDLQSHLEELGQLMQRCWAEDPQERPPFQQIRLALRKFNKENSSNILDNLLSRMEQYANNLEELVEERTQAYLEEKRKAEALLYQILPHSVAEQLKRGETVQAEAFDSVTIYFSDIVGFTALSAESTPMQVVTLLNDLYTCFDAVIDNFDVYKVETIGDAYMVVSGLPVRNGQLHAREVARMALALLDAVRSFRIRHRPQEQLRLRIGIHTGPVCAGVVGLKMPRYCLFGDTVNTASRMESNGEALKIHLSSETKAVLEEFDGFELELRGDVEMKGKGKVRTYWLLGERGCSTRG

In the case of BNP (Bachem, H-5968) (peptide), the EC50, fluorescence of cGMP reporter cells in experiment [1] was 2900 pM. In the case of ANP (Bachem, H-2100) (peptide), the EC50, fluorescence of cGMP reporter cells in experiment [1] stood at 220 pM. In experiment [2], CNP (Bachem, H-1296) (peptide) had an EC50, luminescence of cGMP reporter cells of 24 pM.
